Source: patent US20210292423A1

Assays:
[1] = biological target: human CD123 (IL3RA) on cells (human) (UniProt P26951); assay: cell-based or functional assay
[2] = biological target: human CD123 (IL3RA) on cells (human) (UniProt P26951); assay: flow cytometry, TF-1 cells, 3 µg antibody
[3] = biological target: human CD123 (IL3RA) on cells (human) (UniProt P26951); assay: flow cytometry, THP-1 cells, 3 µg antibody
[4] = biological target: Macaca fascicularis CD3ε/δ-Fc fusion protein (Macaca fascicularis) (UniProt Q95LI8); assay: SPR Biacore, ratio against human CD3εδ
[5] = biological target: Macaca fascicularis CD3ε/δ-Fc fusion protein (Macaca fascicularis) (UniProt Q95LI8); assay: SPR single point, hybridoma supernatant
[6] = biological target: Macaca fascicularis CD3ε/δ-Fc fusion protein (Macaca fascicularis) (UniProt Q95LI8); assay: SPR Biacore, Fab

Chain of human CD123 (IL3RA) on cells (human) (P26951 19-378): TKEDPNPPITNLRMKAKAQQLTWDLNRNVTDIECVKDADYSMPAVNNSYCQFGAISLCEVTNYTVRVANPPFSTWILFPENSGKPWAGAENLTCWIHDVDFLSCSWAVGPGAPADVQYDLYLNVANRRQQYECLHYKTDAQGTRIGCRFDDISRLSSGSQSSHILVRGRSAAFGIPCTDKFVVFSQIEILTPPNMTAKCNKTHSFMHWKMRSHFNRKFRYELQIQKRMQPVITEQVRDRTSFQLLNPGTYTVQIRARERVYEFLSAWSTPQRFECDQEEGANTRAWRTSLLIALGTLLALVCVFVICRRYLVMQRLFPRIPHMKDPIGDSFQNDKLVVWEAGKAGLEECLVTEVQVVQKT
Chain of Macaca fascicularis CD3ε/δ-Fc fusion protein (Macaca fascicularis) (chain, as listed by the source mutant, chain 1 of 2): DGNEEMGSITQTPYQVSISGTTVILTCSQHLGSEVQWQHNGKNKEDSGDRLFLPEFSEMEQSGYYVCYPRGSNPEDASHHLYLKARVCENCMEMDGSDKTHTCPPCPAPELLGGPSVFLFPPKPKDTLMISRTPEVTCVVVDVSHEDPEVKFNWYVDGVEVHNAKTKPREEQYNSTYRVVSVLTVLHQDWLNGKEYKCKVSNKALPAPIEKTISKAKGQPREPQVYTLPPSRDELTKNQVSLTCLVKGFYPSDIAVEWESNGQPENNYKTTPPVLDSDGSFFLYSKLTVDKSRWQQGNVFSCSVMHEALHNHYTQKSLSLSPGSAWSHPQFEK
Chain of Macaca fascicularis CD3ε/δ-Fc fusion protein (Macaca fascicularis) (Q95LI8 22-105, stated change not applied, chain 2 of 2): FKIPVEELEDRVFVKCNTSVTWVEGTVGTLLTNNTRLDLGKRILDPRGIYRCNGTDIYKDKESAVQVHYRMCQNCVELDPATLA

Binder	EC50 [ng/ml] geomean, cytotoxic assay on THP-1 [1] [ng/mL]	% FITC positive Cells [2] [%]	% FITC positive Cells [3] [%]	also measured
CODV-Fab BFX-3E3-D3 × CD3 (bispecific antibody, part only; not given: CD3 arm, linkers, constant domains, part only) light, part: QFVLTQPNSVSTNLGSTVKLSCKRNTGNIGSNYVNWYQQHEGRSPTTMIYRDDKRPDGVPDRFSGSIDRSSNSALLTINNVQTEDEADYFCQSYSSGINIIFGGGTKLTVL heavy, part: QVQLQESGPGLVQPSQTLSLTCTVSGFSLTTYDVHWVRQPPGKGLEWMGRIQNGGITDYNSALKSRLIISRDTSKSQVFLKMNSVQTEDTAMYFCAKTGSYFYAFDHWGQGTLVTVSS	12.2	31.6	99	
12D2-E5 Fab (Fab, V domains shown) VH: EVKLVESGGGLVQPGRSLRLSCAASGFNFYAYWMGWVRQAPGKGLEWIGEIKKDGTTINYTPSLKDRFTISRDNAQNTLYLQMTKLGSEDTALYYCAREERDGYFDYWGQGVMVTVSS VL: QFVLTQPNSVSTNLGSTVKLSCKRSTGNIGSNYVNWYQQHEGRSPTTMIYRDDKRPDGVPDRFSGSIDRSSNSALLTINNVQTEDEADYFCQSYSSGIVFGGGTKLTVL				Ratio KD(cy)/KD(hu) [4]: 4
12D2-E5 anti-CD3 antibody (hybridoma supernatant) (antibody, V domains shown) VH: EVKLVESGGGLVQPGRSLRLSCAASGFNFYAYWMGWVRQAPGKGLEWIGEIKKDGTTINYTPSLKDRFTISRDNAQNTLYLQMTKLGSEDTALYYCAREERDGYFDYWGQGVMVTVSS VL: QFVLTQPNSVSTNLGSTVKLSCKRSTGNIGSNYVNWYQQHEGRSPTTMIYRDDKRPDGVPDRFSGSIDRSSNSALLTINNVQTEDEADYFCQSYSSGIVFGGGTKLTVL				RU at 25 nM [5]: 5 RU
CODV-Fab BFX-3B10-E6 × CD3 (bispecific antibody, part only; not given: CD3 arm, linkers, constant domains, part only) light, part: DVLMTQTPVSLPVSLGGQVSISCRSSQSLVHSDGDTYLHWYLQKPGQSPQLLIYRVSNRFSGVPDRFSGSGSGTDFTLKISRVEPEDLGLYYCLQTTHFPPWTFGGGTKLEMK heavy, part: QVQLQQSGPELRRPGSSVRLSCKASGYRIKDFLIHWIKNRPEHGLEWIGWIDPEDGETKYAQKFQTKATLTADTSSNTAYMQLSSLTSEDTATYFCARWGDVYYGLMRGHVMDAWGQGTSVTVSS	429			
CODV-Fab 7G3 × OKT3 (bispecific antibody, part only; not given: OKT3 arm, linkers, constant domains, part only) light, part: DFVMTQSPSSLTVTAGEKVTMSCKSSQSLLNSGNQKNYLTWYLQKPGQPPKLLIYWASTRESGVPDRFTGSGSGTDFTLTISSVQAEDLAVYYCQNDYSYPYTFGGGTKLEIK heavy, part: EVQLQQSGPELVKPGASVKMSCKASGYTFTDYYMKWVKQSHGKSLEWIGDIIPSNGATFYNQKFKGKATLTVDRSSSTAYMHLNSLTSEDSAVYYCTRSHLLRASWFAYWGQGTLVTVSA				Activity EC50 [ng/ml], cytotoxic assay on THP-1 with human T cells [1]: 16 ng/mL
CODV-Fab BFX-9F6-G3 × CD3 (bispecific antibody, part only; not given: anti-CD3 arm, linkers, constant domains, V domains shown, not shown: another chain or arm of the molecule; a dimerising Fc or GST; small tags and cut ends) VL: DIQMTQSPASLSASLGETVTIECRPSEDIHSNVAWYQQKPGNSPQLLIYDASNLADGVPSRFSGSGSGTQYSLKINSLQSEDVASYFCHQYNIYPYTFGSGTKLELK VH: QVQLQESGPTLVKPGDSVKMSCKASGYTFTDYIIHWVKQSHGKSLEWIGYINPYSDGTNYNEKFKSKATLTVDKSTSTAYMEFSRLTSEDSAIYFCALNYGSYYAMDAWGQGTSVTVSS	13.9	60.7	99.7	
5B1-G2 anti-CD3 antibody (hybridoma supernatant) (antibody, V domains shown) VH: EVQVVETGGSLVQPGKSLKLTCATSGFSFSNAWMHWVRQSPEKQLEWVAQIKDKANNYATYYAESVKGRFTISRDDSKGSIYLQMNSLKEEDTAVYYCRGLYYGLFPSDYWGQGVMVTVSS VL: DVVMTQTPVSLSVSLGGQVSISCRSSQSLVHNNGNTYLSWYLLKPGQSPQLLIYKVSNRFSGISDRFSGGGSGTDFTLKISRLEPDDLGIYYCGQGTQYPFTFGSGTKLEIK				RU at 25 nM [5]: 0.5 RU
5B1-G2 Fab (Fab, V domains shown) VH: EVQVVETGGSLVQPGKSLKLTCATSGFSFSNAWMHWVRQSPEKQLEWVAQIKDKANNYATYYAESVKGRFTISRDDSKGSIYLQMNSLKEEDTAVYYCRGLYYGLFPSDYWGQGVMVTVSS VL: DVVMTQTPVSLSVSLGGQVSISCRSSQSLVHNNGNTYLSWYLLKPGQSPQLLIYKVSNRFSGISDRFSGGGSGTDFTLKISRLEPDDLGIYYCGQGTQYPFTFGSGTKLEIK				Ratio KD(cy)/KD(hu) [4]: 1
CODV-Fab BFX-6B10-E4 × CD3 (bispecific antibody, part only; not given: CD3 arm, linkers, constant domains, part only) light, part: NIVMTQSPKSMSISVGDRVTMNCKASQTVGNNIAWYQQKPGLSPQLLIDYASNRYTGVPNRFTGGGYGTDFILTINSVQAEDAAFYYCQRMYNSPTFGGGTKLELK heavy, part: EVQLVESGGGLVQPGRSLKLSCAASGFTFSHYNMAWVRQAPKKGLEWVATITYDDHSTYYRDSVKGRFTISRDTAKSTLYLQMDSLRSEDTATYYCARLVNYAFAYWGQGTLVTVSS	39.7			
CODV-Fab BFX-9B8-G6 × CD3 (bispecific antibody, part only; not given: anti-CD3 arm, linkers, constant domains, V domains shown, not shown: another chain or arm of the molecule; a dimerising Fc or GST; small tags and cut ends) VL: DIVMTQSPSSLAVSAGETVTINCKSSQSFLSSGDERNYVAWYQHKPGQSPKLLIYWASTRHSGVPDRFIGSGSGTDFTLTISSVQAEDLAIYYCQQYYDTPLTFGSGTKLEIK VH: EVKLQESGPSLVQSSQTLSLTCTVSGFSLTSYHIHWVRQPPGKGLEWMGVMWSDGDTSYSSALKSRLSISRDTSQSQVFLKMNSLQTEDTATYYCARGDYSSYIYLWFAYWGQGTLVTVSS	106	31.1	48.8	
CODV-Fab BFX-9D7-C8 × CD3 (bispecific antibody, part only; not given: anti-CD3 arm, linkers, constant domains, V domains shown, not shown: another chain or arm of the molecule; a dimerising Fc or GST; small tags and cut ends) VL: DIVMTQSPSSLAVSEGETVTINCKSSQSFLSSGDGKNYVAWYQYKPGQSPKLLIYWASTRQSGVPDRFIGSGSGTDFTLTISTVQAEDLAIYYCQQYYDTPLTFGSGTKLEIK VH: EVKLQESGPSLVQSSQTLSLTCTVSGFSLTSYHIHWVRQTPGKGLEWMGVMWSDGDTSYNSALKSRLSISRDTSQSQVFLKMNSLQTEDTATYYCARGYYSSYLYLWFAYWGQGTLVTVSS	86.3	50.2	88.7	
humanized 4B4 Fab 4B4_11 (VL1_CM3, VH6_BM2) (Fab, V domains shown) VH: QVQLVESGGRVVQPGRSLRLTCAASGFTFSNAWMHWVRQAPGKQLEWVAQIKARSNNYATYYAESVKGRFTISRDDSKSTIYLQMNSLRAEDTAVYYCRGTYYASKPFDYWGQGTTVTVSS VL: DVVMTQSPLSLSVTLGQPVSISCRSSQSLVHDNANTYLSWSLQRPGQSPRVLIYKVSNRFSGVPDRFSGSGSGTDFTLKISRVEAEDVGVYYCGQGTQYPFTFGSGTKLEIK				Kd [6]: 20.4 nM; koff [6]: 0.00486 s⁻¹; kon [6]: 238000 M⁻¹ s⁻¹
CODV-Fab BFX-2F8-D6 × CD3 (bispecific antibody, part only; not given: anti-CD3 arm, linkers, constant domains, V domains shown, not shown: another chain or arm of the molecule; a dimerising Fc or GST; small tags and cut ends) VH: QVQLKESGPGLVQPSQTLSLTCTVSGFSLTSYGVSWVRQPPGKGLEWIATISSAGSTYYDLVLKSRLSITRDTSKSQVFLKVHSLQTEDTAIYLCARDAPVFNYGSYNAMDSWGQGTSVTVSS VL: DIQMTQSPSFLSATVGDRVTINCKASQNINKYLNWYQQKLGEAPKRLIYNTNSLQTGIPSRFSGSGSGTDYTLTISSLQPEDVATYFCLQHKSGLTFGSGTKLEIK		9.3	24	
CODV-Fab BFX-2B8-F3 × CD3 (bispecific antibody, part only; not given: CD3 arm, linkers, constant domains, part only) light, part: EIVLTQSPTSMTASPGEQVTITCRASSSINYMHWYQQKPGASPRPWIYETSKLASGVPDRFSGSASGTSYSLTINNMEAEDAATYYCQQWNYPSWTFGGGTKLELK heavy, part: EVQLVESGGGLVQPGRSLKLSCAASGFTFSDYNMAWVRQAPKKGLEWVATILYDGGRTYYRGSVKGRFTISRDNAKSTLYLRMDSLRSEDTATYYCATHSRGTDYFDYWGQGVMVTVSS	107			
